1 molecule from patent US20260083725A1, “SIGMARI LIGAND FOR THE TREATMENT OF PANCREATIC CANCER” (INSTITUT NATIONAL DE LA SANTÉ ET DE LA RECHERCHE MÉDICALE, priority 2022, published 2026) can be followed below.

The test system of this assay is SK2 channel. The assay is described as follows: Whole cell patch clamp recording of SK2 current in pancreatic cancer cells. It counts as cell-based, human. The settings on record: cells treated without CAF-CM; EGF 25 ng/mL overnight. The protocol:
Electrophysiological recordings in HEK293-T, PANC-1 and MiaPaCa-2 cells were performed in the whole cell configuration of the patch clamp technique at room temperature. Cells were bathed in a solution containing: 5 mM KCl, 145 mM NaCl, 1 mM MgCl2, 2 mM CaCl2, and 10 mM Hepes (pH adjusted to 7.4 with HCl, 300 mosm/L). Soft glass patch electrodes (Brand, Wertheim, Germany) were made on a horizontal pipette puller (P-97, Sutter Instrument Co., Novato, CA) to achieve a final resistance ranging from 3 to 5 MΩ. The internal solution was: 145 mM KCl, 1 mM MgCl2, 0.87 mM CaCl2, 1 mM EGTA, 10 mM Hepes, 1 mM ATP (pH adjusted to 7.2 with KOH, 308 mosm/L, pCa 6). Recordings were performed at room temperature in the voltage clamp mode using an PC-controlled EPC 9 patch-clamp amplifier (HEKA, Lambrecht/Pfalz, Germany). Currents were acquired and analyzed with Pulse and Pulsefit software (HEKA). Signal were filtered at 10 kHz and digitalized at 20 kHz. Currents were elicited by voltage ramps protocols (from −120 to +60 mV). Current density was measured at 0 mV. For the electrophysiological study of the SK2 mutations, HEK293-T were transfected with the different constructions and the HA-myr-AKT using calcium phosphate and recorded 24 h after transfection.
Background: Patch clamp records ionic current or voltage across a cell membrane.

B1: EGF: EGFR ligand; growth factor applied to cells at 25 ng/mL (protein, UniProt P01133 23-1207, looked up)
Pro-epidermal growth factor: PQHWSCPEGTLAGNGNSTCVGPAPFLIFSHGNSIFRIDTEGTNYEQLVVDAGVSVIMDFHYNEKRIYWVDLERQLLQRVFLNGSRQERVCNIEKNVSGMAINWINEEVIWSNQQEGIITVTDMKGNNSHILLSALKYPANVAVDPVERFIFWSSEVAGSLYRADLDGVGVKALLETSEKITAVSLDVLDKRLFWIQYNREGSNSLICSCDYDGGSVHISKHPTQHNLFAMSLFGDRIFYSTWKMKTIWIANKHTGKDMVRINLHSSFVPLGELKVVHPLAQPKAEDDTWEPEQKLCKLRKGNCSSTVCGQDLQSHLCMCAEGYALSRDRKYCEDVNECAFWNHGCTLGCKNTPGSYYCTCPVGFVLLPDGKRCHQLVSCPRNVSECSHDCVLTSEGPLCFCPEGSVLERDGKTCSGCSSPDNGGCSQLCVPLSPVSWECDCFPGYDLQLDEKSCAASGPQPFLLFANSQDIRHMHFDGTDYGTLLSQQMGMVYALDHDPVENKIYFAHTALKWIERANMDGSQRERLIEEGVDVPEGLAVDWIGRRFYWTDRGKSLIGRSDLNGKRSKIITKENISQPRGIAVHPMAKRLFWTDTGINPRIESSSLQGLGRLVIASSDLIWPSGITIDFLTDKLYWCDAKQSVIEMANLDGSKRRRLTQNDVGHPFAVAVFEDYVWFSDWAMPSVMRVNKRTGKDRVRLQGSMLKPSSLVVVHPLAKPGADPCLYQNGGCEHICKKRLGTAWCSCREGFMKASDGKTCLALDGHQLLAGGEVDLKNQVTPLDILSKTRVSEDNITESQHMLVAEIMVSDQDDCAPVGCSMYARCISEGEDATCQCLKGFAGDGKLCSDIDECEMGVPVCPPASSKCINTEGGYVCRCSEGYQGDGIHCLDIDECQLGEHSCGENASCTNTEGGYTCMCAGRLSEPGLICPDSTPPPHLREDDHHYSVRNSDSECPLSHDGYCLHDGVCMYIEALDKYACNCVVGYIGERCQYRDLKWWELRHAGHGQQQKVIVVAVCVVVLVMLLLLSLWGAHYYRTQKLLSKNPKNPYEESSRDVRSRRPADTEDGMSSCPQPWFVVIKEHQDLKNGGQPVAGEDGQAADGSMQPTSWRQEPQLCGMGTEQGCWIPVSSDKGSCPQVMERSFHMPSYGTQTLEGGVEKPHSLLSANPLWQQRALDPPHQMELTQ
modifications: Pro-epidermal growth factor
notes: EGFR ligand; growth factor applied to cells at 25 ng/mL
As for B1, the SK2 current result was “significant increase”.
